B1: GA081: PCSK9 gRNA for ABE8.8 splice site editing, Human/Cyno (nucleic acid)
guide: TTTCCAGGTCATCACAGTTGGTTTTAGAGCTAGAAATAGCAAGTTAAAATAAGGCTAGTCCGTTATCAACTTGAAAAAGTGGCACCGAGTCGGTGCTTTT
modifications: listed as RNA; modified_base 1: mod_base = OTHER; note = 2'-O-Methyl-uridine phosphorothioate; modified_base 2: mod_base = OTHER; modified_base
notes: PCSK9 gRNA for ABE8.8 splice site editing, Human/Cyno
B2: GA077: PCSK9 gRNA for ABE8.8 splice site editing, Human/Cyno (nucleic acid)
guide: UCCCAGGCCTGGAGTTTATTGTTTTAGAGCTAGAAATAGCAAGTTAAAATAAGGCTAGTCCGTTATCAACTTGAAAAAGTGGCACCGAGTCGGTGCTTTT
modifications: 2'-O-methyl at 1, 2, other sugars and backbone not given here; further chemistry not fully specified
notes: as for B1
B3: GA080: PCSK9 gRNA for ABE8.8 splice site editing, Human/Cyno (nucleic acid)
guide: CCTTTCCAGGTCATCACAGTGTTTTAGAGCTAGAAATAGCAAGTTAAAATAAGGCTAGTCCGTTATCAACTTGAAAAAGTGGCACCGAGTCGGTGCTTTT
modifications: 2'-O-methyl at 1, 2, other sugars and backbone not given here; further chemistry not fully specified
notes: as for B1
B4: GA079: PCSK9 gRNA for ABE8.8 splice site editing, Human/Cyno (nucleic acid)
guide: CTTTCCAGGTCATCACAGTTGTTTTAGAGCTAGAAATAGCAAGTTAAAATAAGGCTAGTCCGTTATCAACTTGAAAAAGTGGCACCGAGTCGGTGCTTTT
modifications: listed as RNA; modified_base 1: mod_base = OTHER; note = 2'-O-Methyl-cytidine phosphorothioate; modified_base 2: mod_base = OTHER; note = 2'-O-Methyl-uridine phosphorothioate; modified_bas
notes: as for B1
B5: GA088: PCSK9 gRNA for ABE8.8 splice site editing, Human/Cyno (nucleic acid)
guide: CCCAGGCTGCAGCTCCCACTGTTTTAGAGCTAGAAATAGCAAGTTAAAATAAGGCTAGTCCGTTATCAACTTGAAAAAGTGGCACCGAGTCGGTGCTTTT
modifications: 2'-O-methyl at 1, 2, other sugars and backbone not given here; further chemistry not fully specified
notes: as for B1
B6: GA087: PCSK9 gRNA for ABE8.8 splice site editing, Human/Cyno (nucleic acid)
guide: UCACCTGCTCCTGAGGGGCCGTTTTAGAGCTAGAAATAGCAAGTTAAAATAAGGCTAGTCCGTTATCAACTTGAAAAAGTGGCACCGAGTCGGTGCTTTT
modifications: 2'-O-methyl at 1, 2, other sugars and backbone not given here; further chemistry not fully specified
notes: as for B1

tested on: PCSK9 gene splice site; type: cell-based, cynomolgus monkey; conditions: not given
Experimental: PCSK9 gRNAs were co-transfected with an equivalent amount of in vitro transcribed ABE8.8 mRNA MA002 (1:1 ratio by weight) into primary hepatocytes and processed as described in detailed methods. In one set of experiments, extracted genomic DNA was analyzed for base editing of the target splice site with next-generation sequencing of PCR amplicons generated around the target sites. Samples were prepared using the Nextera XT DNA library preparation kit (Illumina) according to the manufacturer's protocol. Briefly, two rounds of PCR were performed first to amplify the region of interest and second to add DNA sequences required for next generation sequencing and sample identification to the initial product. The final amplicon was sequenced on the Illumina MiSeq instrument according to the manufacturer's protocol.
Similarly, three gRNAs (GA098, GA099, GA100) were synthesized matching the 5′-[…]-3′ (SEQ ID NO: 15) (GA091) human protospacer sequence, as well as four gRNAs (GA067/GA101, GA102, GA103, GA347) matching the 5′-[…]-3′ (SEQ ID NO: 14) (GA067) cynomolgus protospacer sequence, but with more extensive chemical modifications of various kinds (Table 1). GA066 and GA095 contain the same chemical composition and modification pattern, as do GA067 and GA101 with one another. […] Each of the gRNAs described in Table 8, with an equivalent amount of in vitro transcribed ABE8.8 mRNA MA002 (1:1 ratio by weight), were co-transfected into primary human hepatocytes and primary cynomolgus hepatocytes via MessengerMax reagent, using various dilutions to assess for editing activity at different concentrations of test article. Three days after transfection, genomic DNA was harvested from the hepatocytes, and then assessed for base editing of the target splice site with next-generation sequencing.
Modifications and/or truncations to either the spacer or tracr portion of the gRNA was assessed by alteration of the GA066 spacer (5′-[…]-3′ (SEQ ID NO: 13)) (Table 12). […] Each of the gRNAs with an equivalent amount of in vitro transcribed ABE8.8 mRNA (1:1 ratio by weight) were co-transfected into primary human hepatocytes and primary cynomolgus hepatocytes and processed as described in detailed methods.
Lipid nanoparticles containing ABE8.8 mRNA and a gRNA matching the human/cynomolgus 5′-[…]-3′ (SEQ ID NO: 13) sequence (GA066) that targets the splice donor at the 5′ end of PCSK9 intron 1 were formulated at a 1:1 ratio by weight. The LNPs were administered to primary human hepatocytes and primary cynomolgus hepatocytes, using various dilutions to assess for editing activity at different concentrations of test article. LNP containing Cas9 mRNA and a gRNA matching a protospacer sequence in another gene, ANGPTL3, as a positive control was used for these experiments.
Plating, culturing, and transfection of primary hepatocytes. Primary human liver hepatocytes (PHH) and primary cynomolgus liver hepatocytes (PCH) from BioIVT were cultured per the manufacturer's protocol. Briefly, primary human hepatocytes and primary cyno hepatocytes were obtained as frozen aliquots from BioIVT.

Going from B1 to B2, the “Cynomolgous Primary Hepatocytes-splice site editing % 1250 ng/mL” value rises from 0.3% to 4.1%.

First: B3
Second: B4
The “Cynomolgous Primary Hepatocytes-splice site editing % 1250 ng/mL” value of the first is higher: 7.1% for the first, 0.6% for the second.

Compared with B5, B6 is lower in “Cynomolgous Primary Hepatocytes-splice site editing % 1250 ng/mL” value: 17.0% for the first, 0.2% for the second.

Going from B1 to B2, the “Cynomolgous Primary Hepatocytes-splice site editing % 2500 ng/mL” value rises from 0.3% to 5.7%.

Compared with B3, B4 is lower in “Cynomolgous Primary Hepatocytes-splice site editing % 2500 ng/mL” value: 8.8% for the first, 0.5% for the second.

First: B5
Second: B6
The “Cynomolgous Primary Hepatocytes-splice site editing % 2500 ng/mL” value of the first is higher: 23.0% for the first, 0.2% for the second.

Going from B1 to B2, the “Cynomolgous Primary Hepatocytes-splice site editing % 5000 ng/mL” value rises from 0.3% to 5.4%.

First: B3
Second: B4
The “Cynomolgous Primary Hepatocytes-splice site editing % 5000 ng/mL” value of the first is higher: 7.0% for the first, 0.5% for the second.

Going from B5 to B6, the “Cynomolgous Primary Hepatocytes-splice site editing % 5000 ng/mL” value falls from 24.8% to 0.2%.

tested on: ANGPTL3; conditions: phase I clinical trials; cited from earlier work

For evinacumab, the lipid lowering effect is listed as “significant lipid lowering effect”.

tested on: PCSK9 gene splice site; type: cell-based, human; conditions: not given; remark: another data set of the same source
Summary of the method: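 Primary human and cynomolgus hepatocytes co-transfected with gRNA plus ABE8.8 mRNA (1:1 by weight) or given LNP formulations across dilutions; genomic DNA harvested 3 days after transfection. Base editing at the PCSK9 intron 1 splice donor quantified by amplicon next-generation sequencing.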

First: B1
Second: B2
The “Human Primary Hepatocytes-splice site editing % 1250 ng/mL” value of the first is higher: 4.3% for the first, 2.8% for the second.

First: B3
Second: B4
The “Human Primary Hepatocytes-splice site editing % 1250 ng/mL” value of the first is lower: 0.4% for the first, 2.2% for the second.

First: B5
Second: B6
The “Human Primary Hepatocytes-splice site editing % 1250 ng/mL” value of the first is higher: 3.6% for the first, 1.0% for the second.

Going from B1 to B2, the “Human Primary Hepatocytes-splice site editing % 2500 ng/mL” value falls from 6.1% to 5.7%.

Compared with B3, B4 is higher in “Human Primary Hepatocytes-splice site editing % 2500 ng/mL” value: 0.5% for the first, 4.9% for the second.

First: B5
Second: B6
The “Human Primary Hepatocytes-splice site editing % 2500 ng/mL” value of the first is higher: 6.2% for the first, 1.4% for the second.

Going from B1 to B2, the “Human Primary Hepatocytes-splice site editing % 5000 ng/mL” value falls from 8.3% to 6.0%.

First: B3
Second: B4
The “Human Primary Hepatocytes-splice site editing % 5000 ng/mL” value of the first is lower: 0.6% for the first, 6.5% for the second.

Going from B5 to B6, the “Human Primary Hepatocytes-splice site editing % 5000 ng/mL” value falls from 7.2% to 1.9%.

Source: US20250152746A1, “BASE EDITING OF ANGPTL3 AND METHODS OF USING SAME FOR TREATMENT OF DISEASE” (Verve Therapeutics, Inc., priority 2020, published 2025)
